Entries after “also recorded” stand apart in the source; their conditions may differ.
Legend:
PI3K (p85) = assay: Co-immunoprecipitation of the regulatory subunit of PI3K (p85) with αPDGFR mutants in F cells; type: cell-based, mouse; conditions: 50 ng/ml PDGF-BB, 5 minutes
Experimental: (§1) The ability of the αPDGFR mutants to undergo ligand dependent tyrosine phosphorylation and to associate with signaling enzymes was then tested. F cells expressing various αPDGFR mutants were grown to subconfluence and serum starved overnight. Cells were either left resting (−) or stimulated with 50 ng/ml PDGF-BB (+) for 5 minutes, and lysed. The αPDGFR was immunoprecipitated with αPDGFR antibody, as described above, and the resulting immunoprecipitates were resolved by 7.5% SDS-PAGE and transferred onto Immobilon. The segment of the blot containing the αPDGFR was first blotted with anti-phosphotyrosine antibodies, then stripped and reprobed with an anti-αPDGFR antibody. Portions of the membrane that contained the proteins of the appropriate molecular mass were immunoblotted for PLCγ, the regulatory subunit of PI3K (p85), or SHP-2. Crude rabbit anti-p85 antibody is from Dr. A. Toker (Beth Israel Hospital/Harvard Medical School, Boston, Mass.). The monoclonal antibodies against PLCγ and SHP-2 were purchased from Upstate Biotechnology Inc.

F cells = assay: Collagen gel contraction assay of F cells expressing αPDGFR mutants; type: cell-based, mouse; conditions: PDGF-BB (50 ng/ml), 48 hours
Experimental: The contraction assay was based on a previously described reference, Skuta, G. et al. (1999) J. Biol. Chem. 274:30163, with the following modifications. Fα cells were suspended in 1.5 mg/ml of neutralized collagen I (Cohesion vitrogen 100, Palo Alto, Calif.) at a density of 10^6 cells/ml, and were transferred into the 24-well plate (Falcon, Franklyn Lakes, N.J.) that had been preincubated with phosphate-buffer saline (PBS) with 5 mg/ml of bovine serum albumin (BSA) overnight. The gel was solidified by incubating at 37° C. for 90 minutes, and then the well was flooded with DMEM+5 mg/ml of BSA supplemented with an amount of vitreous such that the final concentration of vitreous in the culture medium was 1, 5 or 20%. The gels were incubated at 37° C. with 5% CO2. The initial gel diameter was 15 mm. The media was replaced every 24 hours and the gel diameter was measured after 48 hours. The extent of contraction was calculated by subtracting the diameter of the well at 48 hours from the initial diameter (15 mm). Each experimental condition was assayed in triplicate, and at least three independent experiments were performed. Unpaired t-test was performed to detect statistic difference in contraction assay.
To determine the signaling pathways that drive contraction, cells expressing the αPDGFR mutants were subjected to the collagen gel contraction assay described above. Accordingly, F cells expressing the indicated αPDGFRs were subjected to the collagen gel assay in the presence of buffer, PDGF-BB (50 ng/ml), TGFβ1 (1 ng/ml), or FBS (10%). The data presented are the mean±standard deviation measured at the 48 hours time point. Each experimental condition was assayed in triplicate, and at least 3 independent experiments were performed.

PI3K = assay: In vitro PI3K activity assay of αPDGFR immunoprecipitates; type: biochemical, mouse; conditions: immunoprecipitates of F cells ± 50 ng/ml PDGF-BB
Experimental: To measure the PI3K activity that coprecipitated with the PDGFRs, the receptor immunoprecipitates were subjected to an in vitro PI3K kinase assay. Aliquots of the immunoprecipitates used in FIG. 10B were subjected to a PI3K activity assay. This assay detects PI3K that has co-precipitated with the αPDGFR. The PI3K assay was performed as previously described. Kazlauskas, A. et al. (1990) Embo. J. 9:3279. Briefly, immunoprecipitated αPDGFR from approximately 5×10^5 cells were incubated with phosphatidyl inositol in the presence of [^32P]-γATP. The reactions were terminated and the phospholipids were extracted and purified by chromatography. The radioactive product of the reaction (phosphoinositide 3 phosphate) was detected by autoradiography.

αPDGFR [1] = assay: Ligand-dependent tyrosine phosphorylation of αPDGFR mutants in F cells; type: cell-based, human; conditions: 50 ng/ml PDGF-BB, 5 minutes
Experimental: as §1

rabbit eyes = assay: Rabbit PVR model: F cells expressing αPDGFR mutants injected into the vitreous; type: in vivo; conditions: for potential to induce PVR (PVR score): up to 28 days after the surgery
Experimental: PVR was induced in the rabbit eyes as previously described (Andrews, A. et al. (1999) Invest. Ophthalmol. Vis. Sci. 40:2683 and Nakagawa, M. et al. (1995) Invest. Ophthalmol. Vis. Sci. 36:2388). Briefly, gas vitrectomy was performed by injecting 0.4 ml of expanding perfluoropropane gas (C3F8) into the vitreous cavity 4 mm posterior to the corneal limbus under anesthetical condition. Three days later, the rabbits were anesthetized and the pupils were dilated. 0.1 ml DMEM containing 1×10^5 of RCFs expressing empty vector or αPDGFR mutant were injected into the vitreous cavity together with 0.1 ml of PRP using 30 G needle. Ten rabbits underwent surgery for each cell population expressing the empty vector or the truncated, E587K, T665M, D818N, or V859M αPDGFR mutants. One rabbit in the D818N group died just after the surgery, therefore the total number is 9 for this group. The retinal status was evaluated with an indirect ophthalmoscope fitted with a +30 D fundus lens at 1, 4, 7, 14, 21, and 28 days after the surgery. The PVR was graded from 0 through 5 according to the Fastenberg score. Fastenberg, D. M. et al. (1982) Am. J. Ophthalmol. 93:565. The grading is as follows: 0; no abnormality, 1; vitreous strand, 2; traction of the retina, 3; partial retinal detachment (less than 2 quadrant), 4; extended (more than 2 quadrant) but not total retinal detachment, 5; total retinal detachment. All surgeries were performed under aseptic conditions and pursuant to the regulation of the ARVO Statement for the Use of Animals in Ophthalmic and Vision Research. Only the left eye of each rabbit was used for the experiments.
An important component of PVR is the traction force that is generated when cells of the epiretinal membrane contract. To test if the signaling enzymes that are required for contraction in the in vitro assays also participate in PVR, the cells expressing the various αPDGFR mutants, described in the previous Examples, were assayed in a rabbit PVR model, described above. In this model, rabbits first undergo gas vitrectomy, and then cells are coinjected with […]. The formation of an epiretinal membrane and retinal detachment is observed in living animals over 28 days.
Briefly, PVR was induced by introducing F cells expressing the indicated αPDGFR into the vitreous of the rabbit eyes. The PVR score was evaluated up to 28 days after the surgery according to the classification described above. The mean value and standard error of the scores in a group were indicated. Each group contained 9 or 10 rabbits; the response to parental F cells was previously reported (Andrews et al., supra), and was included here for comparison purposes.

PLCγ = assay: Co-immunoprecipitation of PLCγ with αPDGFR mutants in F cells; type: cell-based, mouse; conditions: 50 ng/ml PDGF-BB, 5 minutes
Experimental: as §1

SHP-2 = assay: Co-immunoprecipitation of SHP-2 with αPDGFR mutants in F cells; type: cell-based, mouse; conditions: 50 ng/ml PDGF-BB, 5 minutes
Experimental: as §1

αPDGFR [2] = conditions: cited from earlier work
GST-PLCγ = assay: In vitro kinase assay of immunoprecipitated mutant αPDGFRs with exogenous substrate; type: biochemical; conditions: 292 immunoprecipitates, [32P]-γ ATP, 30° C., 5 min
Experimental: Mutant αPDGFRs were selectively immunoprecipitated with the 292 antibody, and samples representing 2×10^5 cells from 292 antibodies were subjected to an in vitro kinase assay. Immunoprecipitates were preincubated with 2 μg of GST protein for 10 min at 0° C., then 2 μg of Glutathione S-transferase fusion phospholipase C-gamma (GST-PLCγ, an exogenous substrate, 10 μCi of γ-[^32P] ATP (DuPont NEN Research Products, Boston, Mass.), and universal kinase buffer (UKB; 20 mM Pipes, pH 7.0, 10 mM MnCl2, 20 μg/ml aprotinin) were added. The samples were incubated at 30° C. for 5 min. The proteins were separated by 7.5% sodium dodecyl sulfate-polyacrylamide gel electrophoresis (SDS-PAGE), the gel was dried, and the radiolabeled protein was detected by autoradiography.

Src family kinases = conditions: cited from earlier work

Molecule	recruitment of PI3K / p85 (Properties) (PI3K (p85))	PDGF-dependent contraction (F cells)	PI3K activity coprecipitating with the receptor (PI3K)	PDGF-dependent tyrosine phosphorylation of the receptor (αPDGFR [1])	potential to induce PVR (PVR score) (rabbit eyes)	recruitment or activation of PLCγ (Properties) (PLCγ)	recruitment of SHP-2 (Properties) (SHP-2)	kinase activity of the receptor (Properties) (αPDGFR [2])	kinase activity towards exogenous substrate GST-PLCγ (GST-PLCγ)	time until PVR after injection of cells (rabbit eyes; rabbit, in vivo)	recruitment or activation of Src family kinases (Properties) (Src family kinases)
F31/42: αPDGFR mutant, Tyr to Phe substitution at 731 and 742	failed to efficiently associate; also recorded: Fails to recruit PI3K	did not respond	did not detectably coprecipitate								
R627: αPDGFR mutant, Lys to Arg substitution at 627, kinase inactive	failed to recruit any of these signaling enzymes	no contraction		not phosphorylated in response to PDGF	dramatically less able to cause the disease	failed to recruit any of these signaling enzymes	failed to recruit any of these signaling enzymes	Kinase inactive			
WT αPDGFR: wild type human αPDGFR, SEQ ID NO: 2, expressed in F cells (Fα cells)	coprecipitated	contracted	coprecipitated			coprecipitated	coprecipitated		phosphorylated the exogenous substrate	2-3 weeks	
F7: αPDGFR mutant, Tyr to Phe substitution at 572, 574, 720, 731, 742, 988, and 1018 (protein, UniProt P16234 24-1089, looked up, variant Y572F Y574F Y720F Y731F Y742F Y988F Y1018F) Platelet-derived growth …: QLSLPSILPNENEKVVQLNSSFSLRCFGESEVSWQYPMSEEESSDVEIRNEENNSGLFVTVLEVSSASAAHTGLYTCYYNHTQTEENELEGRHIYIYVPDPDVAFVPLGMTDYLVIVEDDDSAIIPCRTTDPETPVTLHNSEGVVPASYDSRQGFNGTFTVGPYICEATVKGKKFQTIPFNVYALKATSELDLEMEALKTVYKSGETIVVTCAVFNNEVVDLQWTYPGEVKGKGITMLEEIKVPSIKLVYTLTVPEATVKDSGDYECAARQATREVKEMKKVTISVHEKGFIEIKPTFSQLEAVNLHEVKHFVVEVRAYPPPRISWLKNNLTLIENLTEITTDVEKIQEIRYRSKLKLIRAKEEDSGHYTIVAQNEDAVKSYTFELLTQVPSSILDLVDDHHGSTGGQTVRCTAEGTPLPDIEWMICKDIKKCNNETSWTILANNVSNIITEIHSRDRSTVEGRVTFAKVEETIAVRCLAKNLLGAENRELKLVAPTLRSELTVAAAVLVLLVIVIISLIVLVVIWKQKPRYEIRWRVIESISPDGHEFIFVDPMQLPYDSRWEFPRDGLVLGRVLGSGAFGKVVEGTAYGLSRSQPVMKVAVKMLKPTARSSEKQALMSELKIMTHLGPHLNIVNLLGACTKSGPIYIITEYCFYGDLVNYLHKNRDSFLSHHPEKPKKELDIFGLNPADESTRSFVILSFENNGDFMDMKQADTTQFVPMLERKEVSKYSDIQRSLYDRPASYKKKSMLDSEVKNLLSDDNSEGLTLLDLLSFTYQVARGMEFLASKNCVHRDLAARNVLLAQGKIVKICDFGLARDIMHDSNYVSKGSTFLPVKWMAPESIFDNLYTTLSDVWSYGILLWEIFSLGGTPYPGMMVDSTFYNKIKSGYRMAKPDHATSEVYEIMVKCWNSEPEKRPSFYHLSEIVENLLPGQYKKSYEKIHLDFLKSDHPAVARMRVDSDNAFIGVTYKNEEDKLKDWEGGLDEQRLSADSGFIIPLPDIDPVPEEEDLGKRNRHSSQTSEESAIETGSSSSTFIKREDETIEDIDMMDDIGIDSSDLVEDSFL	failed to recruit any of these signaling enzymes; also recorded: Fails to recruit	no contraction		undergoes modest tyrosine phosphorylation	dramatically less able to cause the disease	failed to recruit any of these signaling enzymes; also recorded: Fails to recruit	failed to recruit any of these signaling enzymes; also recorded: Fails to recruit	kinase active			Fails to recruit
